From patent US10800847
Each block holds one substance with its values, some of them ahead of it.

Tests used:
[1] = biological target: HLA-Cw*1502 (Cw15) (human); assay: Luminex, iBead vs regular bead MFI, 1:8
[2] = biological target: HLA-Cw*0102 (Cw1) (human); assay: Luminex, iBead vs regular bead MFI, 1:8
[3] = biological target: HLA-Cw*0801 (Cw8) (human); assay: Luminex, iBead vs regular bead MFI, 1:8
[4] = biological target: HLA-Cw*1802 (Cw18) (human); assay: Luminex, iBead vs regular bead MFI, 1:8
[5] = biological target: HLA-Cw*0304 (Cw10) (human); assay: Luminex, iBead vs regular bead MFI, 1:8
[6] = biological target: HLA-Cw*0501 (Cw5) (human); assay: Luminex, iBead vs regular bead MFI, 1:8
[7] = biological target: HLA-Cw*1601 (Cw16) (human); assay: Luminex, iBead vs regular bead MFI, 1:8
HLA-B*8201 (B82) (human) [8] = assay: Luminex, iBead vs regular bead MFI, 1:8
[9] = biological target: HLA-Cw*1701 (Cw17) (human); assay: Luminex, iBead vs regular bead MFI, 1:8
[10] = biological target: HLA-Cw*0202 (Cw2) (human); assay: Luminex, iBead vs regular bead MFI, 1:8
[11] = biological target: HLA-Cw*1203 (Cw12) (human); assay: Luminex, iBead vs regular bead MFI, 1:8
[12] = biological target: Albumin (negative control beads) (human or bovine); assay: Luminex, iBead vs regular bead MFI, 1:8
[13] = biological target: HLA-Cw*0401 (Cw4) (human); assay: Luminex, iBead vs regular bead MFI, 1:8
[14] = biological target: HLA-Cw*1402 (Cw14) (human); assay: Luminex, iBead vs regular bead MFI, 1:8
[15] = biological target: HLA-Cw*0702 (Cw7) (human); assay: Luminex, iBead vs regular bead MFI, 1:8
[16] = biological target: HLA-Cw*0303 (Cw9) (human); assay: Luminex, iBead vs regular bead MFI, 1:8
HLA-B*1511 (B75) (human) = assay: Luminex iBeads (#6), IVIg diluted 1:8
HLA-B*1501 (B62) (human) = assay: Luminex iBeads (#6), IVIg diluted 1:8
HLA-B*1302 (B13) (human) = assay: Luminex iBeads (#6), IVIg diluted 1:8
HLA-B*1510 (B71) (human) = assay: Luminex iBeads (#6), IVIg diluted 1:8
HLA-B*1513 (B77) (human) = assay: Luminex iBeads (#6), IVIg diluted 1:8
HLA-B*0702 (B7) (human) = assay: Luminex iBeads (#6), IVIg diluted 1:8
HLA-B*1402 (B65) (human) = assay: Luminex iBeads (#6), IVIg diluted 1:8
HLA-B*1503 (B72) (human) = assay: Luminex iBeads (#6), IVIg diluted 1:8
HLA-B*1301 (B13) (human) = assay: Luminex iBeads (#6), IVIg diluted 1:8
HLA-B*0801 (B8) (human) = assay: Luminex iBeads (#6), IVIg diluted 1:8
HLA-B*1502 (B75) (human) = assay: Luminex iBeads (#6), IVIg diluted 1:8
HLA-B*1512 (B76) (human) = assay: Luminex iBeads (#6), IVIg diluted 1:8
[17] = biological target: Serum albumin on negative control beads (HSA/BSA) (human or bovine); assay: Luminex iBeads (#6), IVIg diluted 1:8
HLA-B*1801 (B18) (human) = assay: Luminex iBeads (#6), IVIg diluted 1:8
[18] = biological target: HLA-Cw*1502 (Cw15) (human); assay: Luminex, regular beads (#7), 1:8
[19] = biological target: HLA-Cw*0102 (Cw1) (human); assay: Luminex, regular beads (#7), 1:8
[20] = biological target: HLA-Cw*1802 (Cw18) (human); assay: Luminex, regular beads (#7), 1:8
[21] = biological target: HLA-Cw*0304 (Cw10) (human); assay: Luminex, regular beads (#7), 1:8
[22] = biological target: HLA-Cw*0501 (Cw5) (human); assay: Luminex, regular beads (#7), 1:8
[23] = biological target: HLA-Cw*0302 (Cw10) (human); assay: Luminex, regular beads (#7), 1:8
HLA-B*8201 (B82) (human) [24] = assay: Luminex, regular beads (#7), 1:8
[25] = biological target: HLA-Cw*1701 (Cw17) (human); assay: Luminex, regular beads (#7), 1:8
[26] = biological target: HLA-Cw*0602 (Cw6) (human); assay: Luminex, regular beads (#7), 1:8
[27] = biological target: HLA-Cw*0202 (Cw2) (human); assay: Luminex, regular beads (#7), 1:8
[28] = biological target: Albumin (negative control beads) (human or bovine); assay: Luminex, regular beads (#7), 1:8
[29] = biological target: HLA-Cw*0401 (Cw4) (human); assay: Luminex, regular beads (#7), 1:8
[30] = biological target: HLA-Cw*1402 (Cw14) (human); assay: Luminex, regular beads (#7), 1:8
[31] = biological target: HLA-Cw*0702 (Cw7) (human); assay: Luminex, regular beads (#7), 1:8
[32] = biological target: HLA-Cw*0303 (Cw9) (human); assay: Luminex, regular beads (#7), 1:8
[33] = biological target: HLA-Cw*0302 (Cw10) (human); assay: Luminex, iBead vs regular bead MFI, 1:8
[34] = biological target: HLA-Cw*0602 (Cw6) (human); assay: Luminex, iBead vs regular bead MFI, 1:8
[35] = biological target: HLA-Cw*1601 (Cw16) (human); assay: Luminex, regular beads (#7), 1:8
[36] = biological target: HLA-Cw*1203 (Cw12) (human); assay: Luminex, regular beads (#7), 1:8

Difference % [1]: 24%
Difference % [2]: -38%
Difference % [3]: -32%
Difference % [4]: -2%
Difference % [5]: -26%
Difference % [6]: -9%
Difference % [7]: -45%
Difference % (HLA-B*8201 (B82) (human) [8]): 10%
Difference % [9]: 22%
Difference % [10]: 13%
Difference % [11]: -54%
Difference % [12]: 33%
Difference % [13]: -20%
Difference % [14]: -57%
Difference % [15]: -54%
Difference % [16]: -9%
MFI (HLA-B*1511 (B75) (human)): 2380 MFI
MFI (HLA-B*1501 (B62) (human)): 394 MFI
MFI (HLA-B*1302 (B13) (human)): 1200 MFI
MFI (HLA-B*1510 (B71) (human)): 492 MFI
MFI (HLA-B*1513 (B77) (human)): 904 MFI
MFI (HLA-B*0702 (B7) (human)): 2010 MFI
MFI (HLA-B*1402 (B65) (human)): 0 MFI
MFI (HLA-B*1503 (B72) (human)): 0 MFI
MFI (HLA-B*1301 (B13) (human)): 1840 MFI
MFI (HLA-B*0801 (B8) (human)): 324 MFI
MFI (HLA-B*1502 (B75) (human)): 709 MFI
MFI (HLA-B*1512 (B76) (human)): 5970 MFI
MFI [17]: 5030 MFI
MFI (HLA-B*1801 (B18) (human)): 0 MFI
MFI [18]: 6170 MFI
MFI [19]: 4540 MFI
MFI [20]: 7980 MFI
MFI [21]: 3710 MFI
MFI [22]: 6970 MFI
MFI [23]: 4010 MFI
MFI (HLA-B*8201 (B82) (human) [24]): 3860 MFI
MFI [25]: 7860 MFI
MFI [26]: 9170 MFI
MFI [27]: 7180 MFI
MFI [28]: 3790 MFI
MFI [29]: 6290 MFI
MFI [30]: 4270 MFI
MFI [31]: 7620 MFI
MFI [32]: 2860 MFI
Substance: IVIg GamaSTAN S/D (Talecris Biotherapeutics, USA) (antibody)

Difference % [2]: -2%
Difference % [3]: -40%
Difference % [4]: -58%
Difference % [5]: -28%
Difference % [6]: -47%
Difference % [7]: -52%
Difference % [33]: -2%
Difference % (HLA-B*8201 (B82) (human) [8]): -55%
Difference % [9]: -6%
Difference % [34]: -65%
Difference % [10]: -32%
Difference % [11]: -32%
Difference % [13]: -51%
Difference % [14]: -45%
Difference % [15]: -54%
Difference % [16]: 1%
MFI (HLA-B*1511 (B75) (human)): 3380 MFI
MFI (HLA-B*1501 (B62) (human)): 749 MFI
MFI (HLA-B*1302 (B13) (human)): 1710 MFI
MFI (HLA-B*1510 (B71) (human)): 1450 MFI
MFI (HLA-B*1513 (B77) (human)): 2350 MFI
MFI (HLA-B*1402 (B65) (human)): 929 MFI
MFI (HLA-B*1503 (B72) (human)): 507 MFI
MFI (HLA-B*1301 (B13) (human)): 3560 MFI
MFI (HLA-B*0801 (B8) (human)): 1510 MFI
MFI (HLA-B*1512 (B76) (human)): 2810 MFI
MFI [17]: 7150 MFI
MFI (HLA-B*1801 (B18) (human)): 1140 MFI
MFI [20]: 8430 MFI
MFI [22]: 7550 MFI
MFI [35]: 8460 MFI
MFI (HLA-B*8201 (B82) (human) [24]): 6060 MFI
MFI [25]: 6560 MFI
MFI [26]: 12000 MFI
MFI [36]: 7100 MFI
MFI [28]: 10800 MFI
MFI [29]: 7530 MFI
MFI [30]: 7240 MFI
MFI [31]: 11800 MFI
MFI [32]: 4260 MFI
Substance: IVIg Gamunex-C Lot NKLG1 (antibody)

Difference % [1]: -68%
Difference % [2]: -75%
Difference % [3]: -90%
Difference % [4]: -79%
Difference % [5]: -59%
Difference % [6]: -66%
Difference % [7]: -77%
Difference % [33]: -57%
Difference % (HLA-B*8201 (B82) (human) [8]): -104%
Difference % [9]: -42%
Difference % [34]: -80%
Difference % [10]: -59%
Difference % [11]: -65%
Difference % [12]: -24%
Difference % [13]: -71%
Difference % [15]: -77%
Difference % [16]: -45%
MFI (HLA-B*1511 (B75) (human)): 1860 MFI
MFI (HLA-B*1501 (B62) (human)): 53 MFI
MFI (HLA-B*1302 (B13) (human)): 0 MFI
MFI (HLA-B*1510 (B71) (human)): 347 MFI
MFI (HLA-B*1513 (B77) (human)): 841 MFI
MFI (HLA-B*0702 (B7) (human)): 0 MFI
MFI (HLA-B*1402 (B65) (human)): 0 MFI
MFI (HLA-B*1503 (B72) (human)): 0 MFI
MFI (HLA-B*1301 (B13) (human)): 1030 MFI
MFI (HLA-B*0801 (B8) (human)): 0 MFI
MFI (HLA-B*1502 (B75) (human)): 91 MFI
MFI (HLA-B*1512 (B76) (human)): 1420 MFI
MFI [17]: 7800 MFI
MFI (HLA-B*1801 (B18) (human)): 0 MFI
MFI [18]: 3690 MFI
MFI [19]: 4310 MFI
MFI [20]: 7160 MFI
MFI [21]: 4430 MFI
MFI [22]: 5980 MFI
MFI [35]: 6850 MFI
MFI [23]: 4130 MFI
MFI (HLA-B*8201 (B82) (human) [24]): 4780 MFI
MFI [25]: 5640 MFI
MFI [26]: 10600 MFI
MFI [27]: 6810 MFI
MFI [36]: 5610 MFI
MFI [28]: 10300 MFI
MFI [29]: 6480 MFI
MFI [30]: 6160 MFI
MFI [31]: 10500 MFI
MFI [32]: 3020 MFI
Substance: IVIg Gamunex-C Lot NKLK1 (antibody)

Difference % [1]: -95%
Difference % [2]: -77%
Difference % [3]: -85%
Difference % [4]: -92%
Difference % [5]: -74%
Difference % [6]: -83%
Difference % [7]: -88%
Difference % [33]: -79%
Difference % (HLA-B*8201 (B82) (human) [8]): -90%
Difference % [9]: -70%
Difference % [34]: -96%
Difference % [10]: -80%
Difference % [12]: -29%
Difference % [13]: -80%
Difference % [14]: -88%
Difference % [15]: -89%
Difference % [16]: -64%
MFI (HLA-B*1511 (B75) (human)): 1090 MFI
MFI (HLA-B*1501 (B62) (human)): 0 MFI
MFI (HLA-B*1302 (B13) (human)): 0 MFI
MFI (HLA-B*1510 (B71) (human)): 0 MFI
MFI (HLA-B*0702 (B7) (human)): 0 MFI
MFI (HLA-B*1402 (B65) (human)): 0 MFI
MFI (HLA-B*1503 (B72) (human)): 0 MFI
MFI (HLA-B*1301 (B13) (human)): 52 MFI
MFI (HLA-B*0801 (B8) (human)): 114 MFI
MFI (HLA-B*1502 (B75) (human)): 0 MFI
MFI (HLA-B*1512 (B76) (human)): 1380 MFI
MFI (HLA-B*1801 (B18) (human)): 0 MFI
MFI [18]: 4820 MFI
MFI [19]: 7720 MFI
MFI [20]: 10600 MFI
MFI [21]: 5550 MFI
MFI [22]: 8770 MFI
MFI [35]: 9260 MFI
MFI [23]: 5610 MFI
MFI (HLA-B*8201 (B82) (human) [24]): 5030 MFI
MFI [25]: 8980 MFI
MFI [27]: 9380 MFI
MFI [36]: 8660 MFI
MFI [28]: 2340 MFI
MFI [29]: 9880 MFI
MFI [30]: 8430 MFI
MFI [31]: 15300 MFI
MFI [32]: 3350 MFI
Substance: IVIg Octagam (Octapharma, Lachen, Switzerland) (antibody)
